T1: human IGSF8 expressed on the cell surface (human, UniProt Q969P0 28-613)
T1 construct: whole, on cells; also called human IGSF8 on CT26 cells; IGSF8 on MC38 cells
T1 sequence (looked up): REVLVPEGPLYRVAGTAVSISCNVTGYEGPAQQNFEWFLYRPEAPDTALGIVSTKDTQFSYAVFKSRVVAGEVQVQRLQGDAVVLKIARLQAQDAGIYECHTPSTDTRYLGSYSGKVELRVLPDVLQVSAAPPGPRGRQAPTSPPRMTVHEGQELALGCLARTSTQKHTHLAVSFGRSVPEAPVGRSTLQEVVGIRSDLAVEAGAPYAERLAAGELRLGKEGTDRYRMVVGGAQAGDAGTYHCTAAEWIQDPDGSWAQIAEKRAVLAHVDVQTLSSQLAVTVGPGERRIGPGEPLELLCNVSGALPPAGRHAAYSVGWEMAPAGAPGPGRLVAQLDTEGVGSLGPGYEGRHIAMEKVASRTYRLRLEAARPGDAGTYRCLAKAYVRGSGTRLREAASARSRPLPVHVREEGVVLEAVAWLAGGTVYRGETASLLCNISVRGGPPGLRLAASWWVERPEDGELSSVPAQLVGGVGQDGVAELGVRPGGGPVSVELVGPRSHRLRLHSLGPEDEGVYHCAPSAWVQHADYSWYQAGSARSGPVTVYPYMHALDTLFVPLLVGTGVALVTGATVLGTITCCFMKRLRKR

T2: recombinant human IGSF8 extracellular domain tagged by a human Fc region (IGSF8-hFc) (human, UniProt Q969P0 28-579, biotin label in Examples 17, 18 and 28 (site not given))
T2 construct: also called IGSF8-Fc fusion protein; IGSF8-hFc-biotin; not shown: human Fc region
T2 sequence: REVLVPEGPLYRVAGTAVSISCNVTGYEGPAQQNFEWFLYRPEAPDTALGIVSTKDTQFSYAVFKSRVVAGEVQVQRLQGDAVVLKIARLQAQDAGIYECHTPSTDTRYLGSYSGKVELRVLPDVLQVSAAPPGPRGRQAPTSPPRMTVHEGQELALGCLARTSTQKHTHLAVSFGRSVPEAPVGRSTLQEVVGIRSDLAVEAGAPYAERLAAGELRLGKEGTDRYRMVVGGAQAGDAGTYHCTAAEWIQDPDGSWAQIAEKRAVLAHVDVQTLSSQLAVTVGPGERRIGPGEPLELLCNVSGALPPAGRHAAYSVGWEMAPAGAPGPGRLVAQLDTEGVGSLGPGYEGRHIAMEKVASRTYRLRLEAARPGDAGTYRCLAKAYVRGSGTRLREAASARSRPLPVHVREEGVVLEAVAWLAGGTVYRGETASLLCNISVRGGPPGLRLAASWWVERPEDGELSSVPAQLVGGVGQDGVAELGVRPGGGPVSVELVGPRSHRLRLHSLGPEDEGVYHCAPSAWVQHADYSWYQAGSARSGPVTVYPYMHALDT

B1: IGSF8 protein without D1 domain (ligand, human, UniProt Q969P0 150-579, looked up)
chain: PDVLQVSAAPPGPRGRQAPTSPPRMTVHEGQELALGCLARTSTQKHTHLAVSFGRSVPEAPVGRSTLQEVVGIRSDLAVEAGAPYAERLAAGELRLGKEGTDRYRMVVGGAQAGDAGTYHCTAAEWIQDPDGSWAQIAEKRAVLAHVDVQTLSSQLAVTVGPGERRIGPGEPLELLCNVSGALPPAGRHAAYSVGWEMAPAGAPGPGRLVAQLDTEGVGSLGPGYEGRHIAMEKVASRTYRLRLEAARPGDAGTYRCLAKAYVRGSGTRLREAASARSRPLPVHVREEGVVLEAVAWLAGGTVYRGETASLLCNISVRGGPPGLRLAASWWVERPEDGELSSVPAQLVGGVGQDGVAELGVRPGGGPVSVELVGPRSHRLRLHSLGPEDEGVYHCAPSAWVQHADYSWYQAGSARSGPVTVYPYMHALDT
notes: domain: D2-4; also called D24; D2-4
B2: KIR3DL2 expressed on cells (receptor, human, UniProt P43630 22-455, looked up)
chain: LMGGQDKPFLSARPSTVVPRGGHVALQCHYRRGFNNFMLYKEDRSHVPIFHGRIFQESFIMGPVTPAHAGTYRCRGSRPHSLTGWSAPSNPLVIMVTGNHRKPSLLAHPGPLLKSGETVILQCWSDVMFEHFFLHREGISEDPSRLVGQIHDGVSKANFSIGPLMPVLAGTYRCYGSVPHSPYQLSAPSDPLDIVITGLYEKPSLSAQPGPTVQAGENVTLSCSSWSSYDIYHLSREGEAHERRLRAVPKVNRTFQADFPLGPATHGGTYRCFGSFRALPCVWSNSSDPLLVSVTGNPSSSWPSPTEPSSKSGICRHLHVLIGTSVVIFLFILLLFFLLYRWCSNKKNAAVMDQEPAGDRTVNRQDSDEQDPQEVTYAQLDHCVFIQRKISRPSQRPKTPLTDTSVYTELPNAEPRSKVVSCPRAPQSGLEGVF
notes: whole, on cells; on CT26 cells (vector with thy1.1 tag)

For assay [1], the target named is B2. Kind of assay: FACS, hFc-tagged proteins on CT26 cells expressing the receptor, MFI normalized to Thy1.1. The protocol: (§1) KLRC1 also contains a ITIM motif in its intracellular domain, and was known to be a inhibitory receptor of NK or CD8⁺ T cells as part of a heterodimer with KLRD1 on the cell surface. […] Specifically, 100,000 CT26 cells overexpressing the antigens (KIRs or KLRs) were washed with PBS buffer containing 2% FBS, and incubated with 100 μL IGSF8 recombinant proteins or antibodies (5 μg/mL) for 30 minutes on ice. Cells were then washed twice with wash buffer, and incubated with 100 μL of 1:100 anti-human Fc-PE antibody for 15 minutes on ice. Cells were washed twice with wash buffer and analyzed on a FACS analyzer (CytoFlex, Beckman). In these experiments, the mean fluorescence intensity (MFI) of IGSF8 binding to different CT26 cells were normalized by the expression of different KLRs on CT26 cells using an anti-thy1.1 mAb via flow cytometry.
On the technique in general: Flow cytometry measures light scatter and fluorescence of single cells or particles in a stream.

Assay [2] has as its target T1, human IGSF8 expressed on the cell …. The assay is described as follows: FACS cell-cell conjugate assay, CFSE-labelled MC38-IGSF8 mixed 1:1 with Far Red-labelled CT26-KIR3DL2. The method, then:
FIG. 23A is a diagram of two embodiments of an antibody blocking assay. In the left panel, CT26 cells expressing ligand IGSF8 are treated with soluble and biotin labelled receptor (KIR3DL1/2) and anti-IGSF8 mAbs, and subsequently, bound receptor is detected with PE-streptavidin. In the right panel, MC38 cells expressing the IGSF8 ligand are contacted with KLR- or KIR-receptor-expressing CT26 cells, and anti-IGSF8 antibodies capable of blocking MC38-CT26 cell/cell conjugates will reduce the formation of the FACS-detectable conjugate.
A competition assay (FIG. 23A) was then designed to test whether these seven mAbs block IGSF8 binding to the KIR3DL1/2 or the KLRC1&D1 heterodimer receptors. MC38 cells (a cell line derived from C57BL6 murine colon adenocarcinoma cells from NIH) with forced expression of IGSF8 protein on cell surface by lentiviral delivery of a human IGSF8-expression construct were labeled with CFSE (Carboxyfluorescein succinimidyl ester, Thermo). CT26 cells with forced expression of either KIR3DL1/2 or KLRC1&D1 were labeled with CellTrace Far Red (Thermo). The MC38 cells were then mixed at a 1:1 ratio with the CT26 cells for about an hour at room temperature. The formation of MC38 and CT26 cell/cell conjugates was assessed by flow cytometry.

In assay [3] the target is T2, recombinant human IGSF8 extracellular …. The assay is described as follows: FACS, biotin-labelled IGSF8-hFc on CT26 cells expressing the KIR, MFI normalized to Thy1.1. The method, then:
For this experiment, different human KIR receptors (KIR2DL1, KIR2DL2, KIR2DL3, KIR2DL4, KIR2DL5A, KIR2DL5B, KIR3DL1, KIR3DL2, KIR3DL3) were first cloned into a proprietary lentiviral vector containing a thy1.1 tag (FIG. 17A). Then mouse CT26 cells, were transducted by these lentiviral constructs, and IGSF8 binding was tested with biotin-labelled recombinant IGSF8 hFc fusion protein. The mean fluorescence intensity (MFI) of IGSF8 binding to different CT26 cells were normalized by the expression of different KIRs on CT26 cells using an anti-thy1.1 mAb (Biolegend) via flow cytometry.
as §1

With B1, the binding result in assay [1] is given as “no binding”.
Consider B2, for which the binding result in assay [2] and in assay [3] was “binds” in each case.

These data come from US20230303695A1 (SHANGHAI XBH BIOTECHNOLOGY, published 2023).
